Key:
[1] = target: CYP2C9 (Homo sapiens, UniProt P11712); experiment: Relative CYP contribution to hepatic bioactivation and detoxification, CYP2C9; assay type: in vitro ADME
[2] = target: T1, CYP3A4 (Homo sapiens, UniProt P08684); experiment: Relative CYP contribution to hepatic bioactivation and detoxification, CYP3A4; assay type: in vitro ADME
[3] = target: T2, CYP2C19 (Homo sapiens, UniProt P33261); experiment: Steady-state kinetics of overall NSAID metabolism; assay type: in vitro ADME
[4] = target: T3, CYP2C8 (Homo sapiens, UniProt P10632); experiment: Relative CYP contribution to hepatic bioactivation and detoxification, CYP2C8; assay type: in vitro ADME
T3 sequence (P10632 1-490): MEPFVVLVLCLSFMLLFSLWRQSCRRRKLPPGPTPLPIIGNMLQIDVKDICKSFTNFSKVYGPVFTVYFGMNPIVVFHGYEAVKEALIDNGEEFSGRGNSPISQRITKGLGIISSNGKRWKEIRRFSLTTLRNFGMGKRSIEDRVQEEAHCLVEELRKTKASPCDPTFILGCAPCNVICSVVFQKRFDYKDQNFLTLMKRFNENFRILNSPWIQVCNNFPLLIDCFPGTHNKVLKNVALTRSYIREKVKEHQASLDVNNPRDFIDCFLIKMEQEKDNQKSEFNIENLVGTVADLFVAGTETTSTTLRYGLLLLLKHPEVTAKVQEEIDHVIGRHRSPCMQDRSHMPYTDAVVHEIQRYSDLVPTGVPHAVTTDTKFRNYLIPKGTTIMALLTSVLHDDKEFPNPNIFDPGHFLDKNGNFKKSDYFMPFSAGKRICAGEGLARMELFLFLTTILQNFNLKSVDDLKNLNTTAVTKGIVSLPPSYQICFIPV

[5] = target: T3, CYP2C8; experiment: Steady-state kinetics of overall NSAID metabolism; assay type: in vitro ADME
[6] = target: T1, CYP3A4; experiment: Steady-state kinetics of overall NSAID metabolism; assay type: in vitro ADME
[7] = target: T2, CYP2C19; experiment: Relative CYP contribution to hepatic bioactivation and detoxification, CYP2C19; assay type: in vitro ADME
[8] = substrate: O=C(O)c1ccccc1Nc1cccc(C(F)(F)F)c1; experiment: Steady-state kinetics of overall NSAID metabolism; assay type: in vitro ADME, human; conditions: other: overall metabolism (depletion) by CYP2C19; 95% CI in parentheses; pH 7.4
[9] = substrate: Cc1cccc(Nc2ccccc2C(=O)O)c1C; experiment: Steady-state kinetics of overall NSAID metabolism; assay type: in vitro ADME, human; conditions: 95% CI in parentheses, pH 7.4
[10] = substrate: O=C(O)COC(=O)Cc1ccccc1Nc1c(Cl)cccc1Cl; experiment: Steady-state kinetics of overall NSAID metabolism; assay type: in vitro ADME, human; conditions: 95% CI in parentheses, pH 7.4
[11] = substrate: O=C(O)c1ccccc1Nc1cccc(C(F)(F)F)c1; experiment: Steady-state bioactivation kinetics; assay type: in vitro ADME, human; conditions: other: CYP2C19; metabolite M2/M4, path 1, 2; 95% CI in parentheses; pH 7.4
[12] = substrate: Cc1cccc(Nc2ccccc2C(=O)O)c1C; experiment: Steady-state bioactivation kinetics; assay type: in vitro ADME, human; conditions: path 1, 2, 95% CI in parentheses, pH 7.4
[13] = substrate: O=C(O)COC(=O)Cc1ccccc1Nc1c(Cl)cccc1Cl; experiment: Steady-state bioactivation kinetics; assay type: in vitro ADME, human; conditions: 95% CI in parentheses, pH 7.4
[14] = substrate: Cc1ccc(Cl)c(Nc2ccccc2C(=O)O)c1Cl; experiment: cells, lysate or membranes named; conditions: 95% CI in parentheses, pH 7.4
[15] = substrate: Cc1c(Cl)cccc1Nc1ccccc1C(=O)O; experiment: cells, lysate or membranes named; conditions: 95% CI in parentheses, pH 7.4
[16] = substrate: Cc1ccc(Nc2c(F)cccc2Cl)c(CC(=O)O)c1; experiment: cells, lysate or membranes named; conditions: 95% CI in parentheses, pH 7.4
[17] = substrate: Cc1cccc(Nc2ccccc2C(=O)O)c1C; experiment: cells, lysate or membranes named; conditions: other: CYP2C9, path 1, 2, 95% CI in parentheses, pH 7.4
[18] = substrate: O=C(O)COC(=O)Cc1ccccc1Nc1c(Cl)cccc1Cl; experiment: cells, lysate or membranes named; conditions: other: CYP2C9, 95% CI in parentheses, pH 7.4
[19] = other: overall metabolism (depletion) by CYP2C19
[20] = other: CYP2C19, metabolite M2/M4a
[21] = other: CYP2C19, metabolite M2/M4b
[22] = other: CYP2C19, metabolite M2/M4, path 1, 2
[23] = other: CYP2C19, metabolite M6, path 3
[24] = other: CYP2C19, metabolite M9, path 4
[25] = other: CYP2C19, metabolite M2/M4a, path 1, 2
[26] = other: CYP2C19, metabolite M2/M4b, path 1, 2
[27] = other: CYP2C19, metabolite M6a, path 3
[28] = other: CYP2C19, metabolite M6b, path 3
[29] = other: overall metabolism (depletion) by CYP2C8
[30] = other: CYP2C8, metabolite M2/M4a
[31] = other: CYP2C8, metabolite M2/M4b
[32] = other: CYP2C8, metabolite M2/M4, path 1, 2
[33] = other: CYP2C8, metabolite M6, path 3
[34] = other: CYP2C8, metabolite M9, path 4
[35] = other: CYP2C9, metabolite M9, path 4
[36] = other: CYP2C9, metabolite M2/M4a, path 1, 2
[37] = other: CYP2C9, metabolite M2/M4b, path 1, 2

T1 sequence (P08684 whole entry): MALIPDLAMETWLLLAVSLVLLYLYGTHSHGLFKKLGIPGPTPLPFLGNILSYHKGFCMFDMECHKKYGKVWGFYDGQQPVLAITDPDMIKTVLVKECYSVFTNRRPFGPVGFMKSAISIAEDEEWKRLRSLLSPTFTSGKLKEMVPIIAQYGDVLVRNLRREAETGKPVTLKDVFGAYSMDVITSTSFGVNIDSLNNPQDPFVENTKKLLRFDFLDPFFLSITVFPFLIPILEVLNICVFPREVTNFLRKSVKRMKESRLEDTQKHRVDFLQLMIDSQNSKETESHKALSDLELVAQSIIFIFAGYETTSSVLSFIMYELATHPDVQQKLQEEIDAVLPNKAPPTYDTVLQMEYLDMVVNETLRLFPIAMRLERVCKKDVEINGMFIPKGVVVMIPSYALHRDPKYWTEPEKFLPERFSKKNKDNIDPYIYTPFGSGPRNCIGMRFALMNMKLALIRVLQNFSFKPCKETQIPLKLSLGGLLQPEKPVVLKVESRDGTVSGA

`O=C(O)Cc1ccccc1Nc1c(Cl)cccc1Cl` [DIC, diclofenac] was tested, and the “Bioactivation Percent” value ([1]; CYP2C9 contribution to total CLbioact of the NSAID) was 97.9%, the “Detoxification Percent” value ([1]; CYP2C9 contribution to total CLdetox of the NSAID) was 12.0% and the “Bioactivation Percent” value ([2]; CYP3A4 contribution to total CLbioact of the NSAID) was 1.1%. The “Detoxification Percent” value ([2]; CYP3A4 contribution to total CLdetox of the NSAID) was 75.9%, the Km at 60 min ([3]; human, recombinant CYP2C19 Supersomes, pH 7.4) was 70.5 µM and the Vmax ([3]; overall metabolism (depletion) by CYP2C19, 95% CI in parentheses) was 1940 (1840–2040) pmol/min/nmol protein. The “Bioactivation Percent” value ([4]; CYP2C8 contribution to total CLbioact of the NSAID) was 0%, the “Detoxification Percent” value ([4]; CYP2C8 contribution to total CLdetox of the NSAID) was 6.5% and the Km at 60 min ([5]; human, recombinant CYP2C8 Supersomes, pH 7.4) was 83 µM. The Vmax ([5]; overall metabolism (depletion) by CYP2C8, 95% CI in parentheses) was 1240 (1170–1320) pmol/min/nmol protein, the Km at 60 min ([6]; human, recombinant CYP3A4 Supersomes, pH 7.4) was 130 µM and the Vmax ([6]; overall metabolism (depletion) by CYP3A4, 95% CI in parentheses) was 5480 (5090–5930) pmol/min/nmol protein. The “Bioactivation Percent” value ([7]; CYP2C19 contribution to total CLbioact of the NSAID) was 1.0% and the “Detoxification Percent” value ([7]; CYP2C19 contribution to total CLdetox of the NSAID) was 5.5%.

B1: CYP2C19 (Homo sapiens) (protein)
chain: MDPFVVLVLCLSCLLLLSIWRQSSGRGKLPPGPTPLPVIGNILQIDIKDVSKSLTNLSKIYGPVFTLYFGLERMVVLHGYEVVKEALIDLGEEFSGRGHFPLAERANRGFGIVFSNGKRWKEIRRFSLMTLRNFGMGKRSIEDRVQEEARCLVEELRKTKASPCDPTFILGCAPCNVICSIIFQKRFDYKDQQFLNLMEKLNENIRIVSTPWIQICNNFPTIIDYFPGTHNKLLKNLAFMESDILEKVKEHQESMDINNPRDFIDCFLIKMEKEKQNQQSEFTIENLVITAADLLGAGTETTSTTLRYALLLLLKHPEVTAKVQEEIERVIGRNRSPCMQDRGHMPYTDAVVHEVQRYIDLIPTSLPHAVTCDVKFRNYLIPKGTTILTSLTSVLHDNKEFPNPEMFDPRHFLDEGGNFKKSNYFMPFSAGKRICVGEGLARMELFLFLTFILQNFNLKSLIDPKDLDTTPVVNGFASVPPFYQLCFIPV
B1 was tested, and the Km [8] was 150 (120–180) μM, the kcat [8] was 2500 (2310–2730) pmol/min/nmol protein and the Km [9, 19] was 220 (180–260) μM. For the same molecule, the kcat [9, 19] was 3060 (2830–3320) pmol/min/nmol protein, the Km [10, 19] was 380 (320–460) μM and the kcat [10, 19] was 3050 (2760–3410) pmol/min/nmol protein. The Km [11] was 28.5 µM, the kcat [11] was 7.7 (7.4–8.1) pmol/min/nmol protein and the Km [12, 20] was 10.8 µM. For the same molecule, the kcat [12, 20] was 2.0 (1.9–2.1) pmol/min/nmol protein, the Km [12, 21] was 13.6 µM and the kcat [12, 21] was 1.5 (1.4–1.6) pmol/min/nmol protein. For the same molecule, the Km [13, 22] was 18.8 µM, the kcat [13, 22] was 4.4 (4.2–4.7) pmol/min/nmol protein and the Km [13, 23] was 74.4 µM. The kcat [13, 23] was 5.6 (5.2–6.1) pmol/min/nmol protein, the Km [13, 24] was 8.9 µM and the kcat [13, 24] was 4.1 (3.9–4.4) pmol/min/nmol protein. For the same molecule, the Km [14, 22] was 5.8 µM, the kcat [14, 22] was 3.1 (3.0–3.2) pmol/min/nmol protein and the Km [14, 23] was 18.9 µM. For the same molecule, the kcat [14, 23] was 64.2 (61.2–67.4) pmol/min/nmol protein, the kcat [14, 24] was 6.1 (5.7–6.4) pmol/min/nmol protein and the Km [14, 19] was 160 (130–190) μM. The kcat [14, 19] was 2400 (2210–2610) pmol/min/nmol protein, the Km [15, 25] was 7.4 µM and the kcat [15, 25] was 2.6 (2.5–2.7) pmol/min/nmol protein. For the same molecule, the Km [15, 26] was 11 µM, the kcat [15, 26] was 3.9 (3.8–4.0) pmol/min/nmol protein and the Km [15, 19] was 110 (94–130) μM. The kcat [15, 19] was 2070 (1950–2210) pmol/min/nmol protein, the Km [16, 22] was 36.8 µM and the kcat [16, 22] was 2.5 (2.4–2.7) pmol/min/nmol protein. The Km [16, 27] was 47.6 µM, the kcat [16, 27] was 1.8 (1.7–2.0) pmol/min/nmol protein and the Km [16, 28] was 115 µM. The kcat [16, 28] was 2.4 (2.2–2.6) pmol/min/nmol protein, the Km [16, 19] was 77.2 (64–93) μM and the kcat [16, 19] was 2610 (2450–2790) pmol/min/nmol protein.

B2: CYP2C8 (Homo sapiens) (protein)
chain: T3 sequence (P10632 1-490)
In the case of B2, the Km [9, 29] is reported as 160 (140–190) μM, the kcat [9, 29] is reported as 2390 (2230–2560) pmol/min/nmol protein and the Km [10, 29] is reported as 110 (96–130) μM. For the same molecule, the kcat [10, 29] was 1740 (1640–1850) pmol/min/nmol protein, the Km [12, 30] was 51.9 µM and the kcat [12, 30] was 5.6 (5.5–5.8) pmol/min/nmol protein. For the same molecule, the Km [12, 31] was 75.6 µM, the kcat [12, 31] was 5.4 (5.2–5.5) pmol/min/nmol protein and the Km [13, 32] was 6.3 µM. The kcat [13, 32] was 1.4 (1.3–1.5) pmol/min/nmol protein, the Km [13, 33] was 9.4 µM and the kcat [13, 33] was 4.0 (3.9–4.1) pmol/min/nmol protein. For the same molecule, the Km [13, 34] was 6.7 µM and the kcat [13, 34] was 1.7 (1.6–1.8) pmol/min/nmol protein.

B3: CYP2C9 (Homo sapiens) (protein)
chain: MDSLVVLVLCLSCLLLLSLWRQSSGRGKLPPGPTPLPVIGNILQIGIKDISKSLTNLSKVYGPVFTLYFGLKPIVVLHGYEAVKEALIDLGEEFSGRGIFPLAERANRGFGIVFSNGKKWKEIRRFSLMTLRNFGMGKRSIEDRVQEEARCLVEELRKTKASPCDPTFILGCAPCNVICSIIFHKRFDYKDQQFLNLMEKLNENIKILSSPWIQICNNFSPIIDYFPGTHNKLLKNVAFMKSYILEKVKEHQESMDMNNPQDFIDCFLMKMEKEKHNQPSEFTIESLENTAVDLFGAGTETTSTTLRYALLLLLKHPEVTAKVQEEIERVIGRNRSPCMQDRSHMPYTDAVVHEVQRYIDLLPTSLPHAVTCDIKFRNYLIPKGTTILISLTSVLHDNKEFPNPEMFDPHHFLDEGGNFKKSKYFMPFSAGKRICVGEALAGMELFLFLTSILQNFNLKSLVDPKNLDTTPVVNGFASVPPFYQLCFIPV
With B3 the Km ([17]; metabolite M2/M4a) was 17.5 (13.4–22.7) μM, the kcat ([17]; metabolite M2/M4a) was 25.6 (24.2–27.0) pmol/min/nmol protein and the Km ([17]; metabolite M2/M4b) was 12.9 (10.1–16.5) μM. The kcat ([17]; metabolite M2/M4b) was 35.7 (34.0–37.4) pmol/min/nmol protein, the Km [14, 35] was 5.5 (4.3–7.1) μM and the kcat [14, 35] was 5.2 (5.0–5.4) pmol/min/nmol protein. The Km [15, 36] was 6.5 (5.2–8.0) μM, the kcat [15, 36] was 15.2 (14.6–15.9) pmol/min/nmol protein and the Km [15, 37] was 6.9 (5.8–8.8) μM. For the same molecule, the kcat [15, 37] was 16.1 (15.6–16.7) pmol/min/nmol protein, the Km ([16]; other: CYP2C9, adduct Unk) was 27.0 (22.4–32.3) μM and the kcat ([16]; other: CYP2C9, adduct Unk) was 23.5 (22.5–24.5) pmol/min/nmol protein. The Km ([18]; adduct Unk) was 7.9 (5.8–10.7) μM, the kcat ([18]; adduct Unk) was 10.2 (9.7–10.9) pmol/min/nmol protein and the Km ([18]; metabolite M9, path 4) was 23.8 (19.4–28.9) μM. For the same molecule, the kcat ([18]; metabolite M9, path 4) was 68.5 (65.0–72.2) pmol/min/nmol protein.

— article PMC8710044 (Biochemical pharmacology, 2021)
